# Test results taken from patent US20030134779A1, “Method and composition for treatment and/or prevention of antibiotic-resistant microorganism infections” (priority 2002, published 2003).
# B1: LF: bovine lactoferrin, 80-kDa iron-binding glycoprotein found in milk (protein, UniProt P24627 20-708, looked up)
# Lactotransferrin: APRKNVRWCTISQPEWFKCRRWQWRMKKLGAPSITCVRRAFALECIRAIAEKKADAVTLDGGMVFEAGRDPYKLRPVAAEIYGTKESPQTHYYAVAVVKKGSNFQLDQLQGRKSCHTGLGRSAGWIIPMGILRPYLSWTESLEPLQGAVAKFFSASCVPCIDRQAYPNLCQLCKGEGENQCACSSREPYFGYSGAFKCLQDGAGDVAFVKETTVFENLPEKADRDQYELLCLNNSRAPVDAFKECHLAQVPSHAVVARSVDGKEDLIWKLLSKAQEKFGKNKSRSFQLFGSPPGQRDLLFKDSALGFLRIPSKVDSALYLGSRYLTTLKNLRETAEEVKARYTRVVWCAVGPEEQKKCQQWSQQSGQNVTCATASTTDDCIVLVLKGEADALNLDGGYIYTAGKCGLVPVLAENRKSSKHSSLDCVLRPTEGYLAVAVVKKANEGLTWNSLKDKKSCHTAVDRTAGWNIPMGLIVNQTGSCAFDEFFSQSCAPGADPKSRLCALCAGDDQGLDKCVPNSKEKYYGYTGAFRCLAEDVGDVAFVKNDTVWENTNGESTADWAKNLNREDFRLLCLDGTRKPVTEAQSCHLAVAPNHAVVSRSDRAAHVKQVLLHQQALFGKNGKNCPDKFCLFKSETKNLLFNDNTECLAKLGGRPTYEEYLGTEYVTAIANLKKCSTSPLLEACAFLTR
# Columns and labels:
# Type in all cases: cell-based, Staphylococcus aureus
# S. aureus ATCC 25923 = experiment: Bacterial growth in MHB; conditions: LF alone, sub-MIC
# Procedure: (§1) The effect of LF or LFC at concentration sub-MICs alone or in combination with sub-MICs of antibiotics on bacterial growth rate of S. aureus, E. coli and K. pneumoniae was determined by monitoring bacterial cultures in MHB with the O.D.600 nm or by the count of colony forming unit per ml (cfu/ml). A volume of 2.5 ml of overnight cultures in MHB adjusted to 0.5-1 McFarland standard in saline were used to inoculate a final volume of 25 ml of fresh MHB containing the desired concentration of tested compounds. All flasks were then incubated at 37° C. with agitation (200 rpm) for 9 h. Aliquots were removed every hour to determine the culture turbidity using the spectrophotometer Philips PU 8800 (Pye Unican Ltd, Cambridge, UK). The combined antibiotic effect on bacterial growth was also determined using concentrations of LF in the presence of different concentrations of antibiotics. Briefly, a volume of 3 ml of fresh MHB containing desired concentration of drugs was adjusted to an optical density of 0.4 at 540 nm after an overnight culture. The culture was then incubated at 37° C with agitation (200 rpm). After incubation, aliquots were removed to determine the culture turbidity (OD540nm) or cfu/ml. To determine the influence of the level of iron on of the growth inhibition by the test compound, 5 μM of FeCl3 were added to the media.
# S. aureus PC-1 = experiment: Bacterial growth in MHB; conditions: LF or LFC alone, sub-MIC
# Procedure: as §1
# [1] = system: S. aureus strains ATCC 25923, SHY97-3906, −4242 and RFT-5; experiment: Bacterial growth in MHB; conditions: LF alone, sub-MIC (9.1, 36.6, 250 or 500 μg/ml); 4, 8 and 18-h; except for strain SHY97-3906
# Procedure: as §1
# [2] = system: β-lactamase (BlaZ) gene expression in S. aureus strain SHY97-4320; experiment: BlaZ gene expression, real-time quantitative RT-PCR, and total RNA
# Procedure: Fresh MHB containing or not 8 μg/ml of penicillin G and/or 1 mg/ml of bovine LF (2×2 factorial design) was adjusted to an optical density at 540 nm of 0.04 with an overnight culture of S. aureus and then incubated at 37° C. with agitation (150 rpm). After 4 and 22-h of incubation, aliquots were removed to determine bacterial growth by viable count (colony forming unit per ml, cfu/ml), measuring the culture turbidity (OD540nm) with a spectrophotometer Philips PU and to measure β-lactamase activity in bacterial cells. Following culture under the same condition, bacterial cells were collected for RNA extraction.
# Total bacterial RNA was prepared using the RNeasy minikit (Qiagen, Mississauga, ON, Canada). Washed bacteria were first treated with 50 μg/ml of lysostaphin (GramCracker, Ambion, Austin, Tex.) for 10 min at 37° C. and RNA was purified according to the manufacturer's protocol. Contaminating DNA was removed from total RNA by using 1 U of Rnase-free Dnase I (Gibco Life Technologies, Grand Island, N.Y.) in a 10 μl reaction mixture containing approximately 50 ng of total RNA per μl and 20mM Tris-HCl (pH 8.4), 2 mM MgCl2 and 50 mM KCl. The reaction mixture was incubated for 15 min at room temperature, and the Dnase I was inactivated by adding 1 μl of 25 mM EDTA to the mixture and incubating for 10 min at 65° C. before assessing quantity and purity. Amount of cellular RNA was then determined by measuring the OD260 nm and OD280 nm.
# Real-Time fluorescence-based 5′ nuclease PCR which is a widely accepted method for measuring gene expression levels was used to quantify β-lactamase BlaZ RNA by RT-PCR on ABI Prism™ 7700 (TaqMan® ) sequence detector (PE Applied Biosystem, Foster City, Calif.). The forward primer, reverse.primer, and TaqMan probe for Real-Time RT-PCR amplification were designed with the PrimerExpress software (PE Applied Biosystem) to specifically amplify the. S. aureus BLAZ gene. Briefly, RNA (50 ng) was added to a 50 μl reaction mixture containing 25 μl of 2×RT-PCR One-Step Universal Master Mix, 1.25 μl of 40×MultiScribe and Rnase Inhibitor Mix, 4.5 μl of the forward primer (10 μM, 5′-[…]-3′, SEQ ID NO:3), 4.5 μl of the reverse primer (10 μM, 5′-[…]-3′, SEQ ID NO:4), and 1.25 μl of TaqMan probe (10 μM, 6FAM-[…]-TAMRA, SEQ ID NO:5). Reverse transcription with the recombinant Moloney Murine Leukemia Virus (M-MuLV) Reverse Transcriptase (0.25 U/μl) was conducted at 48° C. for 30 min. After initial activation of AmpliTaq Gold DNA polymerase (1.25 U/μl) at 95° C. for 10 min, 40 PCR cycles of 95° C. for 15 s and 60° C. for 1 min were performed. The cycle threshold value (CT), indicative of the quantity of target gene at which the fluorescence exceeds a pre-set threshold, was determined and compared to the CT of a standard curve containing known amounts of mRNA (1.1×10^2 to 1.1×10^9) from the BLAZ gene of S. aureus obtained by in vitro transcription. Statistical analysis were done on the LOG 10 of number of copies.
# S. aureus = experiment: Growth inhibition and influence of iron
# Procedure: as §1
molecule,measurement,setting,value
B1,growth,S. aureus ATCC 25923,delayed growth
same,growth,S. aureus PC-1,delayed growth
same,growth,[1],did not affect the growth
same,BlaZ total: total number of copies of BlaZ gene mRNA/ml of culture,[2]; LF 1 mg/ml and/or penicillin G,5.6 × 10^5 copies/ml of culture
same,BlaZ: number of copies of BlaZ gene mRNA/50 ng of mRNA,[2]; LF 1 mg/ml and/or penicillin G,1.4 × 10^4 copies/50 ng of mRNA
same,reduction of the mRNA level in bacteria,"[2]; LF, P<0.001",35%
same,RNA,"[2]; adjusted for an OD540nm of 1.0, LF 1 mg/ml and/or penicillin G",1.88 ± 0.68 :g/ml
same,penicillin G-induced increase of BlaZ mRNA,[2]; simultaneous addition of 1 mg/ml of LF,completely prevented
same,effect of addition of 5 μM of FeCl3 on LF growth inhibitory activity,S. aureus,did not affect
same,growth inhibitory activity,S. aureus; bovine LF saturated to 16.2% of iron,demonstrated a growth inhibitory activity
